From patent US20030124568A1 (published 2003)
Ends that are not written are not given here.

Assays:
Assay in all cases: yeast two-hybrid cotransformation in Y190
[1] = biological target: T1, carboxyl terminus of the GIRK1 subunit cloned into the vector pDBLeu (rat, UniProt P04386 1-147; P63251 180-501, limits assumed)
T1 construct: Yeast two-hybrid bait with the GIRK1 C terminus alone; also called C terminus of GIRK1
Text: (§1) The DNA (accession no.: U09243, EMBL datebase) coding for the carboxyl terminus or the amino terminus of the GIRK1 subunit was amplified by PCR starting from the plasmid “GIRK1NC-bait” using the primers GGIRK1-4s (5′-[…]-3′) and GGIRK1-as (5′-[…]-3′) or GIRK1-NC-s (5′ -[…]-3′) and GIRK1-N-as (5′-[…]-3′) and cloned into the vector pDBLeu. Each of the plasmids was cotransformed with the pPC86 plasmid. GIRK1NCprey2 (SEQ ID NO: 1 nucleotides 1011-1349) or with the plasmid GIRK1NCprey3 (SEQ ID NO: 1, nucleotides 500-1193) into the yeast strain Y190. […] It is evident that the interaction with Mogli takes place only in the presence of both intracellular portions of GIRK1.

[2] = biological target: T2, amino terminus of the GIRK1 subunit cloned into the vector pDBLeu (rat, UniProt P04386 1-147; P63251 1-80, limits assumed)
T2 construct: Yeast two-hybrid bait with the GIRK1 N terminus alone; also called N terminus of GIRK1
Text: as §1

[3] = biological target: T3, GIRK1-NC-bait (GAL4-DNA binding domain fused to the N terminus of the GIRK1 subunit, a linker sequence GSSGSS … (rat, UniProt P04386 1-147; P63251 1-80; P63251 180-501, limits assumed)
T3 construct: Yeast two-hybrid bait in pDBLeu, expressed in yeast strain Y190
Text: as §1

Binder | binding result [1] | binding result [2] | binding result [3]
GIRK1NCprey3 (nucleotides 500-1193 of SEQ ID NO: 1, fragment of rat Mogli, in pPC86) (other, Residue range converted from the printed nucleotide range; also called prey plasmid; Mogli fragment) RIGMVGEGNIQSARYKKESKGGIIKPGSEADFSSSSSTGSISAPEVHMSTTGNKRASFSRNRGPHGRSNGAPSHKSGSSPPSPREKDLVSMLCRNPLSPSNIHPSYAPSSPSSSNSGSYKGSDCSPVMRRSGRYMSCGENHGVKPPNPEQYLTPLQQKEVTVRHLRTKLKESERRLHERESEIMELKSQLARMREDWIEEECHRVEAQLALKEARKEIKQLKQVIETMRS | no binding | no binding | 
nucleotide region 1011-1193 of SEQ ID NO: 1 (overlap of GIRK1NCprey2 and GIRK1NCprey3) cloned into the plasmid pPC86 (other, not shown: small tags and cut ends, also: fused to GAL4 activation domain with pPC86 linker and tail residues, Residue range converted from the printed nucleotide range; also called 1NCprey23o construct) ESERRLHERESEIMELKSQLARMREDWIEEECHRVEAQLALKEARKEIKQLKQVIETMRS |  |  | no binding
GIRK1NCprey2 (nucleotides 1011-1349 of SEQ ID NO: 1, fragment of rat Mogli, in pPC86) (other, Residue range converted from the printed nucleotide range; also called prey plasmid; Mogli fragment) ESERRLHERESEIMELKSQLARMREDWIEEECHRVEAQLALKEARKEIKQLKQVIETMRSSLADKDKGIQKYFVDINIQNKKLESLLQSMEMAHNSSLRDELCLDFSFDSPE | no binding | no binding | 
